According to article PMC8267569, “Development of selective protease inhibitors via engineering of the bait region of human α2-macroglobulin” (The Journal of Biological Chemistry, 2021):

Biological target: the molecule itself
Assay: native gel or EMSA; pore-limited native PAGE of purified recombinant A2M; dimers that failed to tetramerize were removed during purification (Fig. S2)

B1: tabula rasa A2M (bait region replaced by 13 Gly-Gly-Ser repeats) (natural protein, human)
chain: SVSGKPQYMVLVPSLLHTETTEKGCVLLSYLNETVTVSASLESVRGNRSLFTDLEAENDVLHCVAFAVPKSSSNEEVMFLTVQVKGPTQEFKKRTTVMVKNEDSLVFVQTDKSIYKPGQTVKFRVVSMDENFHPLNELIPLVYIQDPKGNRIAQWQSFQLEGGLKQFSFPLSSEPFQGSYKVVVQKKSGGRTEHPFTVEEFVLPKFEVQVTVPKIITILEEEMNVSVCGLYTYGKPVPGHVTVSICRKYSDASDCHGEDSQAFCEKFSGQLNSHGCFYQQVKTKVFQLKRKEYEMKLHTEAQIQEEGTVVELTGRQSSEITRTITKLSFVKVDSHFRQGIPFFGQVRLVDGKGVPIPNKVIFIRGNEANYYSNATTDEHGLVQFSINTTNVMGTSLTVRVNYKDRSPCYGYQWVSEEHEEAHHTAYLVFSPSKSFVHLEPMSHELPCGHTQTVQAHYILNGGTLLGLKKLSFYYLIMAKGGIVRTGTHGLLVKQEDMKGHFSISIPVKSDIAPVARLLIYAVLPTGDVIGDSAKYDVENCLANKVDLSFSPSQSLPASHAHLRVTAAPQSVCALRAVDQSVLLMKPDAELSASSVYNLLPEKDLTGFPGPLNDQDNEDCINRHNVYINGITYTPVSSTNEKDMYSFLEDMGLKAFTNSKIRKPKMCGGSGGSGGSGGSGGSGGSGGSGGSGGSGGSGGSGGSGGSETVRKYFPETWIWDLVVVNSAGVAEVGVTVPDTITEWKAGAFCLSEDAGLGISSTASLRAFQPFFVELTMPYSVIRGEAFTLKATVLNYLPKCIRVSVQLEASPAFLAVPVEKEQAPHCICANGRQTVSWAVTPKSLGNVNFTVSAEALESQELCGTEVPSVPEHGRKDTVIKPLLVEPEGLEKETTFNSLLCPSGGEVSEELSLKLPPNVVEESARASVSVLGDILGSAMQNTQNLLQMPYGCGEQNMVLFAPNIYVLDYLNETQQLTPEIKSKAIGYLNTGYQRQLNYKHYDGSYSTFGERYGRNQGNTWLTAFVLKTFAQARAYIFIDEAHITQALIWLSQRQKDNGCFRSSGSLLNNAIKGGVEDEVTLSAYITIALLEIPLTVTHPVVRNALFCLESAWKTAQEGDHGSHVYTKALLAYAFALAGNQDKRKEVLKSLNEEAVKKDNSVHWERPQKPKAPVGHFYEPQAPSAEVEMTSYVLLAYLTAQPAPTSEDLTSATNIVKWITKQQNAQGGFSSTQDTVVALHALSKYGAATFTRTGKAAQVTIQSSGTFSSKFQVDNNNRLLLQQVSLPELPGEYSMKVTGEGCVYLQTSLKYNILPEKEEFPFALGVQTLPQTCDEPKAHTSFQISLSVSYTGSRSASNMAIVDVKMVSGFIPLKPTVKMLERSNHVSRTEVSSNHVLIYLDKVSNQTLSLFFTVLQDVPVRDLKPAIVKVYDYYETDEFAIAEYNAPCSKDLGNA
notes: human alpha2-macroglobulin from its N-terminus to residue 689, the residue before the bait region (residues 690-728); tabula rasa bait region: 13 Gly-Gly-Ser repeats in place of the 39 residues 690-728, told in words; human alpha2-macroglobulin from residue 729, the residue after the bait region, to the C-terminus; Dimers removed during purification; also called A2M TR; A2M tabula rasa
stoichiometry N: 4
